According to patent publication WO2018134389A1:

Target: DC-SIGN ECD immobilised on a streptactin-functionalised SPR surface (human) (UniProt Q9NNX6)
Sequence (Q9NNX6 59-404): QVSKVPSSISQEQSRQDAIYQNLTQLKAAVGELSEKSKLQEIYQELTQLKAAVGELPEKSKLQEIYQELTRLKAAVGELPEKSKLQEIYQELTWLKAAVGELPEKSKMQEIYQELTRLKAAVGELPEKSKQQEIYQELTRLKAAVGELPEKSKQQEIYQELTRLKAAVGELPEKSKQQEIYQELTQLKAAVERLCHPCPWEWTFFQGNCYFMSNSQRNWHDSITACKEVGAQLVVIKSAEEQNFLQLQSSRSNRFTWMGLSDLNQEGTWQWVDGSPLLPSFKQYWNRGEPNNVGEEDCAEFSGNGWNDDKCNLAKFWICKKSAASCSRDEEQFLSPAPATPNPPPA

HCMV gB treated with a(2 to 3,6)-neuraminidase (sialic acids removed) (from UniProt P13201 25-907) (ligand)
Kd: 0.025 nM
